Measurements reported in PMC9926331 (Journal of Molecular Cell Biology, 2022).

Molecular target: GST-TIP60 (human, UniProt Q92993 1-513)
Assay: pull-down

GST-TIP60, sequence (Q92993 whole entry): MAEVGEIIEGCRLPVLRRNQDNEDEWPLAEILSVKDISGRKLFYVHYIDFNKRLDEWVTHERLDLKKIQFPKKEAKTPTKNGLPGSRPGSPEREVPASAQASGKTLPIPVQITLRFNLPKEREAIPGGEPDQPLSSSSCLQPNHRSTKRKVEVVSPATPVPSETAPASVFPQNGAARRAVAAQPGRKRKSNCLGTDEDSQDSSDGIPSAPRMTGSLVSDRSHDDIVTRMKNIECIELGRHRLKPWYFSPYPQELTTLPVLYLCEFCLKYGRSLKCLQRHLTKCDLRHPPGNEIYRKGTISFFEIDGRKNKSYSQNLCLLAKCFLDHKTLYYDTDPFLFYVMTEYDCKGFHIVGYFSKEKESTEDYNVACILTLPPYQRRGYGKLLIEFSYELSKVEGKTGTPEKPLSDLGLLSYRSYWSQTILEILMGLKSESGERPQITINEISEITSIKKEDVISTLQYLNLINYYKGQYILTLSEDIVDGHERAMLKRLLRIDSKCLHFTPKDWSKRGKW

binding result: binds
B1: MBP-Nup62-CT (domain or fragment, human, UniProt P37198 329-522, looked up)
chain: TYAQLESLINKWSLELEDQERHFLQQATQVNAWDRTLIENGEKITSLHREVEKVKLDQKRLDQELDFILSQQKELEDLLSPLEELVKEQSGTIYLQHADEEREKTYKLAENIDAQLKRMAQDLKDIIEHLNTSGAPADTSDPLQQICKILNAHMDSLQWIDQNSALLQRKVEEVTKVCEGRRKEQERSFRITFD
